Source: article PMC7545097, “Mapping the native interaction surfaces of PREP1 with PBX1 by cross-linking mass-spectrometry and mutagenesis” (Scientific Reports, 2020)

B1: PREP1_(1-436), wild-type recombinant (TR-FIA) (natural protein, UniProt P55347 1-436, looked up)
chain: MMATQTLSIDSYQDGQQMQVVTELKTEQDPNCSEPDAEGVSPPPVESQTPMDVDKQAIYRHPLFPLLALLFEKCEQSTQGSEGTTSASFDVDIENFVRKQEKEGKPFFCEDPETDNLMVKAIQVLRIHLLELEKVNELCKDFCSRYIACLKTKMNSETLLSGEPGSPYSPVQSQQIQSAITGTISPQGIVVPASALQQGNVAMATVAGGTVYQPVTVVTPQGQVVTQTLSPGTIRIQNSQLQLQLNQDLSILHQDDGSSKNKRGVLPKHATNVMRSWLFQHIGHPYPTEDEKKQIAAQTNLTLLQVNNWFINARRRILQPMLDSSCSETPKTKKKTAQNRPVQRFWPDSIASGVAQPPPSELTMSEGAVVTITTPVNMNVDSLQSLSSDGATLAVQQVMMAGQSEDESVDSTEEDAGALAPAHISGLVLENSDSLQ
notes: also called wild-type PREP1; PKNOX1; source: E. coli, purified
B2: PBX1_(1-430), wild-type recombinant (natural protein, human, UniProt P40424 1-430, looked up)
chain: MDEQPRLMHSHAGVGMAGHPGLSQHLQDGAGGTEGEGGRKQDIGDILQQIMTITDQSLDEAQARKHALNCHRMKPALFNVLCEIKEKTVLSIRGAQEEEPTDPQLMRLDNMLLAEGVAGPEKGGGSAAAAAAAAASGGAGSDNSVEHSDYRAKLSQIRQIYHTELEKYEQACNEFTTHVMNLLREQSRTRPISPKEIERMVSIIHRKFSSIQMQLKQSTCEAVMILRSRFLDARRKRRNFNKQATEILNEYFYSHLSNPYPSEEAKEELAKKCGITVSQVSNWFGNKRIRYKKNIGKFQEEANIYAAKTAVTATNVSAHGSQANSPSTPNSAGSSSSFNMSNSGDLFMSVQSLNGDSYQGAQVGANVQSQVDTLRHVISQTGGYSDGLAASQMYSPQGISANGGWQDATTPSSVTSPTEGPGSVHSDTSN
notes: also called wild-type PBX1; purified recombinant human PBX1; source: E. coli, purified

Tests used:
Test in all cases: time-resolved fluorescence immunoassay (TR-FIA); plate coated with monoclonal anti-PBX1; PBX1 pre-incubated with PREP1 or MEIS1 for 1 h on ice, 10 µg/mL in 1% BSA PBS, 1 h at room temperature on the plate; detected with anti-PREP1 or biotinylated anti-MEIS1/2 and Eu^3+ conjugates; normalised to the wild-type protein taken as 1
Conditions in all cases: both partners purified
PBX1 I204A = target: T1, PBX1 I204A (human, UniProt P40424 1-430, I204A)
T1 construct: PBX1, residues 1-430; source: E. coli, purified
T1 sequence (looked up): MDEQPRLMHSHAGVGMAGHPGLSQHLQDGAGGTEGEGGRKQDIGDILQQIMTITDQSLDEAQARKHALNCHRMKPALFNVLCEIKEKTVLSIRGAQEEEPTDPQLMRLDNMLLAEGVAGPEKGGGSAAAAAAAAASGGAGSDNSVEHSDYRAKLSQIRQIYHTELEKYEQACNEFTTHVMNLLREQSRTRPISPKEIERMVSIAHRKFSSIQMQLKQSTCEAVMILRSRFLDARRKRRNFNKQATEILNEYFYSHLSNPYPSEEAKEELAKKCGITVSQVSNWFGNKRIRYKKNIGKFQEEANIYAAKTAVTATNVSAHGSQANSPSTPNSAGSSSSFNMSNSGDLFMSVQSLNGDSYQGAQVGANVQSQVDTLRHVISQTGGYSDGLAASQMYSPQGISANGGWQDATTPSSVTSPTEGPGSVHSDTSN

PBX1 Δ77-84 = target: T2, PBX1 Δ77-84 (human, UniProt P40424 1-430, Δ77−84)
T2 construct: PBX1, residues 1-430, with an internal deletion; source: E. coli, purified
T2 sequence (looked up): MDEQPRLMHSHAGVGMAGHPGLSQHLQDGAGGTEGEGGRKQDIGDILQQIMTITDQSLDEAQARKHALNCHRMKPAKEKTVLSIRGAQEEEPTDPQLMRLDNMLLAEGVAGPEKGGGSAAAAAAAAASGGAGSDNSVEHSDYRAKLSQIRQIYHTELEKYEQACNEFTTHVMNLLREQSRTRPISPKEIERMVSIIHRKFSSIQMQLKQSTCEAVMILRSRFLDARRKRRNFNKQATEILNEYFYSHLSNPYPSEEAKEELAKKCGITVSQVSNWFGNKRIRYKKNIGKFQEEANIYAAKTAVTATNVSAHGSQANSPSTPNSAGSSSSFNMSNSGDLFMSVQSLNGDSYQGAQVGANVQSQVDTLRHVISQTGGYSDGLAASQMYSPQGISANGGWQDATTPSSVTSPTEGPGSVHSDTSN

PBX1 I197A = target: T3, PBX1 I197A (human, UniProt P40424 1-430, I197A)
T3 construct: PBX1, residues 1-430; source: E. coli, purified
T3 sequence (looked up): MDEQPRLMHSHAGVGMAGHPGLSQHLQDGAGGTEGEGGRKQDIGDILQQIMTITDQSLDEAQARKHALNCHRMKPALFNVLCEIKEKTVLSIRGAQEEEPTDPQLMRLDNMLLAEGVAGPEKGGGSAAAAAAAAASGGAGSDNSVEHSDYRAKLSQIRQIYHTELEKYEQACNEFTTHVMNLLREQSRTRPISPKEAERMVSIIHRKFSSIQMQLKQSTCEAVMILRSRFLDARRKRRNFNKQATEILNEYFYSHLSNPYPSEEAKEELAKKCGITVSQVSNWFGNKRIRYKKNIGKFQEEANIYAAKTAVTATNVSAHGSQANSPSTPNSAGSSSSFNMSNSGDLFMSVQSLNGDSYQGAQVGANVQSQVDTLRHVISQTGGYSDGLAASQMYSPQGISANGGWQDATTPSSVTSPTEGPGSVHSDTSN

PREP1 L70A = target: T4, PREP1 L70A (UniProt P55347 1-436, L70A)
T4 construct: PREP1 (PKNOX1), residues 1-436
T4 sequence (looked up): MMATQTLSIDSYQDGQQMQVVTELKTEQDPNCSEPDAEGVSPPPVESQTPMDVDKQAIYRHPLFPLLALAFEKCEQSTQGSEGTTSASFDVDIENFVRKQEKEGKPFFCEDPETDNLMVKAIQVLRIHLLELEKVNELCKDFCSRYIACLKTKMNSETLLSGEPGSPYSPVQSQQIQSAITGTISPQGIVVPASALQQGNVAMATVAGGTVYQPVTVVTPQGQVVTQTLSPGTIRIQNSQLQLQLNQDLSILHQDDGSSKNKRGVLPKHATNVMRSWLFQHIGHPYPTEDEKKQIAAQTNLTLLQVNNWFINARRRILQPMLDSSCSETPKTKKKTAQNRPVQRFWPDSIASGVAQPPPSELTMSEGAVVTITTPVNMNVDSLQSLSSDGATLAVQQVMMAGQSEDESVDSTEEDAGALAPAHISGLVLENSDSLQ

| Binder | binding relative to wild type (PBX1 I204A) | binding relative to wild type (PBX1 Δ77-84) | binding relative to wild type (PBX1 I197A) | binding result (PREP1 L70A) |
| --- | --- | --- | --- | --- |
| B1 | ~65% | 35% | ~65% | – |
| B2 | – | – | – | binds |
